Substrate in data set [1]: OC[C@H]1O[C@@](CO)(O[C@H]2O[C@H](CO)[C@@H](O)[C@H](O)[C@H]2O)[C@@H](O)[C@@H]1O
Nature of the data set: purified protein. As to conditions: 10 mM Britton-Robinson buffer pH 7.0, 30 °C (standard assay), 2 μg protein, sucrose 40-280 mM. It counts as biochemical, Bombyx mori.

Substrate in data set [2]: OC[C@H]1O[C@H](OC[C@H]2O[C@H](O[C@]3(CO)O[C@H](CO)[C@@H](O)[C@@H]3O)[C@H](O)[C@@H](O)[C@@H]2O)[C@H](O)[C@@H](O)[C@H]1O
Nature of the data set: purified protein. The class given is biochemical, Bombyx mori. As to conditions: 10 mM Britton-Robinson buffer pH 7.0, 30 °C (standard assay), 2 μg protein, raffinose 10-70 mM.

B1: BmSUC1 (wtBmSUC1) (Bombyx mori) (protein)
chain: LRQQNETTKRELEEYIADKKAEINPRYRPHYHISPPVGWMNDPNGFSYYKEKFHLFYQFYPYDSVWGPMHWGHVSSSNLIDWEHLPTALIPETEMCFSGGAVVHGDDLVLLYTGRVTTDTDPFYNETQYLAFSNDGVNFRKYEGNPVLSYVPDNSADFRDPKIWKFKDHWYVVIGSSSNKRGRVLLYRSGDLFNWEFLSVLGESDGDMGYMWECPDLFELGGKTIFLWSPQGLEPKGDRYKNTYQTGYYIGELDYETFEFKTDKYFQELDYGHDFYATQTIQGDGKTYLIGWFNMWEVPHLEKEDGWAGTTTLVRELQLIGTRITMNPLEGIQDLRTDSVHNGDLEPQQAIEFGPTAEIILQGCLDQKIELLIQGKEGGLVTTVTWDPEVGKVIVNRSGEVRQVEWVPIGKTSWRLFLDASSLELFCGEGEVVFSSRIFSDGDWVVKNSSPQTLSVEAYRLRRSVPA
notes: full coding region (488 aa, about 56 kDa), C-terminal 6xHis tag kept; expressed in BmN cells by Bac-to-Bac/BmNPV, secreted (N-terminal signal peptide), Ni-NTA purified from culture medium
For orientation: Km means the concentration of substrate that gives half-maximal velocity. As a reminder, the kcat is the number of substrate molecules converted per active site and unit of time at saturation. A word on the kcat/Km: it is the second-order rate constant that governs catalysis at low substrate concentration. In the case of B1, in “purified protein [1]”, the Km stood at 88.32 ± 11.75 mM, the kcat came out at 0.022 ± 0.0009 s⁻¹ and the kcat/Km amounted to 0.249 M⁻¹ s⁻¹. Also, in the data set “purified protein [2]”, the Km was found to be 52.32 ± 17.22 mM, the kcat stood at 0.025 ± 0.0028 s⁻¹ and the kcat/Km worked out at 0.291 M⁻¹ s⁻¹.

B2: BmSUC1 (wtBmSUC1) (Bombyx mori; D181A) (protein)
chain: LRQQNETTKRELEEYIADKKAEINPRYRPHYHISPPVGWMNDPNGFSYYKEKFHLFYQFYPYDSVWGPMHWGHVSSSNLIDWEHLPTALIPETEMCFSGGAVVHGDDLVLLYTGRVTTDTDPFYNETQYLAFSNDGVNFRKYEGNPVLSYVPDNSADFRAPKIWKFKDHWYVVIGSSSNKRGRVLLYRSGDLFNWEFLSVLGESDGDMGYMWECPDLFELGGKTIFLWSPQGLEPKGDRYKNTYQTGYYIGELDYETFEFKTDKYFQELDYGHDFYATQTIQGDGKTYLIGWFNMWEVPHLEKEDGWAGTTTLVRELQLIGTRITMNPLEGIQDLRTDSVHNGDLEPQQAIEFGPTAEIILQGCLDQKIELLIQGKEGGLVTTVTWDPEVGKVIVNRSGEVRQVEWVPIGKTSWRLFLDASSLELFCGEGEVVFSSRIFSDGDWVVKNSSPQTLSVEAYRLRRSVPA
notes: as for B1
B2: in the data set “purified protein [1]”, the Km worked out at 52.87 ± 6.85 mM, the kcat turned out to be 0.025 ± 0.0004 s⁻¹ and the kcat/Km is 0.473 M⁻¹ s⁻¹. Also, in “purified protein [2]”, the Km turned out to be 32.03 ± 4.43 mM, the kcat is 0.021 ± 0.0014 s⁻¹ and the kcat/Km was 0.656 M⁻¹ s⁻¹.
